The values that follow come from article PMC6199259, “Structural and functional insights into the interaction and targeting hub TMD0 of the polypeptide transporter TAPL” (Scientific Reports, 2018).

In one test the target is T1, coreTAPLmV (Homo sapiens, UniProt Q9NP78).
T1 construct: gene ABCB9
The following applies: 3 mM ATP, 3 uM RRYC(fluorescein)KSTEL, 3 mM MgCl2, pH 7.5, 37 °C, 15 min; with cf-TMD0-His co-reconstituted.

The target in the next test is T2, TmrAB (Thermus thermophilus, UniProt Q72J04+Q72J05).
T2 construct: gene TT_C0976
Particulars: 3 mM ATP, 3 uM RRYC(fluorescein)KSTEL, 3 mM MgCl2, pH 7.5, 37 °C, 15 min; with cf-TMD0-His co-reconstituted.

Test [1] concerns the target cf-TMD0-His (M1 – P142), cell-free expressed (human) (UniProt Q9NP78). Kind of test: SEC-MALS; 400 µg cf-TMD0-His on TSK-GEL G3000SWXL, 4 °C; 25 mM Na acetate, 300 mM NaCl, 0.7% c6-DHPC, pH 5.0; three-detector method (UV, refractive index, light scattering). On the technique in general: In gel filtration, larger molecules generally elute earlier.
Test [2] has as its target cf-TMD0-His S28C, MTSL labeled (human) (UniProt Q9NP78). Kind of test: PELDOR (DEER) spectroscopy; MTSL labeled single cysteine cf-TMD0-His in c6-DHPC with 15–20% deuterated glycerol, frozen; Q-band (33.4 GHz), 50 K; modulation depth and distance distribution by Tikhonov regularization.
For test [3], the target named is cf-TMD0-His S138C, MTSL labeled (human) (UniProt Q9NP78). The test is described as above.

As to `Nc1ncnc2c1ncn2[C@@H]1O[C@H](COP(=O)(O)OP(=O)(O)OP(=O)(O)O)[C@@H](O)[C@H]1O` [ATP], the “ATP-dependent peptide transport in proteoliposomes, fluorescence” value on coreTAPLmV and at TmrAB was “Functional reconstitution of coreTAPLmV as well as TmrAB into liposomes was demonstrated by ATP-dependent peptide transport” throughout.
In general, stoichiometry N refers to the number of molecules, sites or subunits per partner or assembly. Regarding “cf-TMD0-His (M1 – P142), cell-free expressed (from UniProt Q9NP78 1-142) (domain or fragment)”, in test [1], the stoichiometry N amounted to 2.
In test [2], “cf-TMD0-His S28C, MTSL labeled (from UniProt Q9NP78 1-142) (domain or fragment)” gave a stoichiometry N of 2.
Take “cf-TMD0-His S138C, MTSL labeled (from UniProt Q9NP78 1-142) (domain or fragment)”: the stoichiometry N in test [3] came to 2.
